Test results: patent US20100279930A1 (published 2010)

Biological target: human Y4 receptor (human, UniProt P50391 1-375)
Assay: 125I-PP displacement

Chain of human Y4 receptor (P50391 whole entry): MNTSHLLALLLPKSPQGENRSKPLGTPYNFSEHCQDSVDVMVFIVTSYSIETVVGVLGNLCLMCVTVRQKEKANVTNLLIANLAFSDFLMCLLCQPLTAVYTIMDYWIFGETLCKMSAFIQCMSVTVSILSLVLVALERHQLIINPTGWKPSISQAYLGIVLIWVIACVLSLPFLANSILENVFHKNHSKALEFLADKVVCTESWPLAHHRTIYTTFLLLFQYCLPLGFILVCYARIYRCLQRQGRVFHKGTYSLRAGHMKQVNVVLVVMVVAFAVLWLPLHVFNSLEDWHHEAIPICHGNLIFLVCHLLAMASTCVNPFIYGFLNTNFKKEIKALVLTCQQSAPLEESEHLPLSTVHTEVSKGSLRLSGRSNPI

Row | IC50 | Binder
1 | 0.09 nM | GAPLEPTYPGDNATPEQLAKYAAELRRYINKLTRPRY [4060207]
2 | 0.128 nM | GAPLEPEYPGDNATPEQKAKYAAALRRYINHLTRPRY [4060274]
3 | 0.081 nM | GAPLEPHYPGDNATPEEMAKYASELRRYINKLTRPRY [4059935]
4 | 0.1 nM | HAPLKPKAPGDNATPEQLAKYAAELRRYINKLTRPRY [4059861]
5 | 0.143 nM | GAPLEPVYPGDNATPEELARYAAELRRYINKLTRPRY [4060134]
6 | 0.061 nM | GAPLEPEYPGDNATPEQMARYAASLRRYINKLTRPRY [4060202]
7 | 0.118 nM | PAPLEPTYPGDNATPEQLAKYYSELRRYINHLTRPRY [4060273]
8 | 0.095 nM | PAPLEPRYPGDNATPEEMAKYAAELRRYINKLTRPRY [4060143]
9 | 0.095 nM | GAPLEPTYPGDNATPEQLAKYYSELRRYINHLTRPRY [4060272]
10 | 0.108 nM | PAPLKPEYPGDNATPEQLAKYAAELRRYINKLTRPRY [4059859]
11 | 0.106 nM | AAPLEPEYPGDNATPEQMAKYAASLRRYINKLTRPRY [4060146]
12 | 0.085 nM | GAPLEPHYPGDNATPEEMAKYATELRRYINKLTRPRY [4059932]
13 | 0.101 nM | GAPLEPRYPGDNATPEEMAKYAAELRRYINKLTRPRY [4060144]
14 | 0.068 nM | HAPLKPTYPGDNATPEQLAKYAAELRRYINKLTRPRY [4059863]
15 | 0.118 nM | PAPLEPHYPGDNATPEEMAKYASELRRYINKLTRPRY [4059936]
16 | 0.095 nM | DAPLEPVYPGDNATPEQMAKYYSELRRYINKLTRPRY [4060148]
17 | 0.053 nM | PAPLEPHYPGDNATPEQLARYYSELRRYINKLTRPRY [4059966]

The remaining lines, values behind:

Row | Binder | IC50
18 | GAPLEPEYPGDNATPEQKARYAAALRRYINHLTRPRY [4060130] | 0.072 nM
19 | AAPLEPEAPGDNATPEQMAKYAAALRRYINKLTRPRY [4059976] | 0.122 nM
20 | PAPLEPEAPGDNATPEQMAKYAAALRRYINKLTRPRY [4059974] | 0.097 nM
21 | PAPLEPTYPGDNATPEQKAKYAAELRRYINKLTRPRY [4060203] | 0.067 nM
22 | GAPLEPEAPGDNATPEQMAKYAAALRRYINKLTRPRY [4059977] | 0.095 nM
23 | AAPLEPTYPGDNATPEQLARYYSELRRYINKLTRPRY [4060212] | 0.067 nM
24 | PAPLEPHYPGDNATPEELARYAAELRRYINKLTRPRY [4060139] | 0.121 nM
25 | GAPLEPHYPGDNATPEQLARYYSELRRYINKLTRPRY [4059967] | 0.064 nM
26 | PAPLKPTYPGDNATPEQLAKYAAELRRYINKLTRPRY [4059864] | 0.07 nM
27 | GAPLEPVYPGDNATPEQMAKYYSELRRYINKLTRPRY [4060147] | 0.077 nM
28 | PAPLKPKAPGDNATPEQLAKYAAELRRYINKLTRPRY [4059862] | 0.071 nM
29 | GAPLEPHYPGDNATPEEMAKYAAELRRYINKITRPRY [4059942] | 0.073 nM
30 | GAPLEPKYPGDDATPEELAKYAAELRRYINKLTRPRY [4060142] | 0.143 nM
31 | GAPLEPTYPGDNATPEQKAKYAAELRRYINKLTRPRY [4060204] | 0.073 nM
32 | PAPLEPTYPGDNATPEELARYAAELRRYINKLTRPRY [4060141] | 0.151 nM
33 | YAPLKPEYPGDNATPEQLAKYAAELRRYINKLTRPRY [4059856] | 0.08 nM
34 | PAPLEPTYPGDDATPEQLAKYAAELRRYINKLTRPRY [4060208] | 0.126 nM
35 | DAPLEPRYPGDNATPEEMAKYAAELRRYINKLTRPRY [4060145] | 0.173 nM
36 | AAPLEPVYPGDNATPEELARYAAELRRYINKLTRPRY [4060135] | 0.197 nM
37 | GAPLEPHYPGDNATPEEMAKYAAELRRYINKVTRPRY [4059947] | 0.066 nM
38 | GAPLEPTYPGDDATPEQLAKYAAELRRYINKLTRPRY [4060210] | 0.106 nM
39 | AAPLEPVYPGDDATPQQMARYYSELRRYINKLTRPRY [4060214] | 0.035 nM
40 | PAPLEPHAPGDNATPEEMAKYAAELRRYINKLTRPRY [4059938] | 0.128 nM
41 | PAPLEPHYPGDNATPEEMAKYAAELRRYINKITRPRY [4059943] | 0.077 nM
42 | AAPLEPHYPGDNATPEEMARYYSELRRYINKLTRPRY [4059965] | 0.083 nM
43 | PAPLEPHYPGDNATPEEMAKYATELRRYINKLTRPRY [4059934] | 0.108 nM
44 | DAPLEPEYPGDDATPEEMAKYAAELRRYINKLTRPRY [4059971] | 0.228 nM
